The source of these data is patent US20210292393A1.

Numbering of substitutions follows the chain as printed. “And” between values parts separate entries of the source, which are not always exact repeats. Equal entries are not always repeated.

What all share (settings): remark: other sources report otherwise
For assay [1], the target named is SARS-CoV-2 spike (S) protein, full length, wild type (SARS-CoV-2), P0DTC2.
Assay [2] addresses SARS-CoV-2 full length spike protein (wild-type) (SARS-CoV-2), P0DTC2.
The target of assay [3] is SARS-CoV-2 full length spike protein (wild type), conjugated to beads (SARS-CoV-2), P0DTC2.
Assay [4] concerns the target SARS-CoV-2 full length spike protein (wild type), expressed on the surface of transiently transfected CHO cells (SARS-CoV-2), P0DTC2.
Assay [5] addresses SARS-CoV-2 spike protein (SARS-CoV-2), P0DTC2.
For assay [6], the target named is SARS-CoV-2 full length spike protein, wild type, expressed on the surface of transiently transfected CHO cells (SARS-CoV-2), P0DTC2.
In assay [7] the target is T1, SARS-CoV-2 full length spike protein (wild type) (SARS-CoV-2), P0DTC2.
Assay [8] has as its target T1, SARS-CoV-2 full length spike protein …. The source holds these as a separate data set.
The target in assay [9] is SARS-CoV-2 spike (S) protein (SARS-CoV-2), P0DTC2.

By Kd is commonly meant a measure of binding affinity in units of concentration. Lower therefore signals tighter binding. A word on the koff: it is a measure of how fast the partners let go of each other. A higher koff goes with a short-lived complex. In general, kon refers to a measure of how fast the partners come together.

B1: anti-SARS-CoV-2 antibody 485 (antibody, V domains shown)
VH: QVQLQESGPGLVKPSGTLSLTCAVSGASISSSNWWSWVRQPPGKGLEWIGEIYHSGSTNYNPSLKSRVTISVDKSKNQFSLKLSSVTAADTAVYYCARRSYYGSGSYYPFDYWGQGTLVTVSS
VL: QSALTQPASVSGSPGQSITISCTGTSSDVGSYNLVSWYQQHPGKAPKLMIYEGRKRPSGVSNRFSGSKSGNTASLTISGLQAEDEADYYCCSYAGSSTYVFGTGTKVTVL
Molecule B1 displayed a median fluorescence fold over isotype (fold over isotype) in [1] of 510.

B2: antibody 416 (antibody, V domains shown)
VH: EVQLVESGGGLVQPGRSLRLSCAASGFTFDDYAMHWVRQAPGKGLEWVSGISWNSGSIGYADSVKGRFTISRDNAKNSLYLQMNSLRAEDTALYYCAKDLAWLSGGMDVWGQGTTVTVSS
VL: not shown
As for B2, the Binding to Wild-Type SARS-CoV-2 (Bead Assay) in assay [2] stood at 110.

B3: antibody 396 (antibody, V domains shown)
VH: QVQLQQWGAGLLKPSETLSLTCAVYGGSFSGYYWSWIRQPPGKGLEWIGEIIHSGSTNYNPSLKSRVTISVDTSKNQFSLKLSSVTAADTAVYYSARRTGLLWFREGSYYFDYWGQGTLVTVSS
VL: DIQMTQSPSSLSASVGDRVTITCRASQGIRNDLGWYQQKPGKAPKRLIYAASSLQSGVPSRFSGSGSGTEFTLTISSLQPEDFATYYCLQHNSYPLTFGGGTKVEIK
The molecule B3 showed a binding signal, bead assay (fold over isotype) in assay [3] of 553.

B4: antibody 472 (antibody, V domains shown)
VH: EVQLVESGGGLIQPGGSLRLSCAASGFTVSSNYMSWVRQAPGKGLEWVSVIYSGGTTHYADSVKGRFTISRDNSKNTLYLQMNSLRAEDTAVYYCANYGMDVWGQGTTVTVSS
VL: SYELTQPSSVSVSPGQTARITCSGDVLAKKYARWFQQKPGQAPVLVIYKDSERPSGIPERFSGSSSGTTVTLTISGAQVEDEADYYCYSAADKVFGGGTKLTVL
For B4, the median fluorescence intensity, fold over isotype control (fold over isotype) in assay [4] is 0.91. Moreover, in assay [5], the Kd was < 0.469 nM, the off-rate constant (koff) is < 1e-05 s⁻¹ and the kon stood at 21300 M⁻¹ s⁻¹.

B5: antibody 389 (antibody, V domains shown)
VH: QVQLVESGGGVVQPGRSLRLSCAASGFTFSSYAMHWVRQAPGKGLEWVAVISYDGSNKYYADSVKGRFTISRDNSKNTLYLQMNSLRAEDTAVYYCASQGRMYVRGVDYGVYWGQGTLVTVSS
VL: NFMLTQPHSVSESPGKTVTISCTGSSGSIASNYVQWYQQRPGSAPTTVIYEDNQRPSGVPDRFSGSIDSSSNSASLTISGLKTEDEADYYCQSYDSSKISHAVFGGGTQLTVL
For B5, in assay [6], the median fluorescence fold over isotype control (fold over isotype) amounted to 0.72. In assay [5], the Kd is < 0.0222 nM, the koff is < 1e-05 s⁻¹ and the kon came out at 450000 M⁻¹ s⁻¹.

B6: anti-SARS-CoV-2 antibody 495 (antibody, V domains shown)
VH: QITLKESGPTLVKPTQTLTLTCTFSGFSLSTSGVGVGWIRQPPGKALEWLALIYWDDDKRYSPSLKSRLTITKDTSKNQVVLIMTNMDPVDTATYYCAHRDSSSWFDLDAFDIWGQGTMVIVSS
VL: QSVLTQPPSVSEAPRQRVTISCSGSSSNIGNNAVNWYQQLPGKAPKLLIYYDDLLPSGVSDRFSGSKSGTSASLAISGLQSEDEADYYCAAWDDRLNGPVFGGGTKLTVL
B6: the median fluorescence fold over isotype (fold over isotype) in [1] is 1090 and 384 and 530.

B7: antibody 444 (antibody, V domains shown)
VH: QVQLVESGGGLVKPGGSLRLSCAASGFTFSDYYMSWIRQAPGKGLEWVSYISSSGSTIYYADSVKGRFTISRDNAKNSLYLQMNSLRAEDTAVYYCARERKVVVAATRNYYYYYGMDVWGQGTTVTVSS
VL: SYELTQPPSVSVSPGQTARITCSGDALPKQYAYWYQQKPGQAPVLVIYKDSERPSGIPERFSGSSSGTTVTLTISGVQAEDEADYYCQSADSSTWVFGGGTKLTVL
In the case of B7, the Binding to Wild-Type SARS-CoV-2 (Bead Assay) in assay [2] is 0.97 and 0.91 and 0.9. In [5], this molecule displayed a Kd of 27.2 nM, a koff of 0.000717 s⁻¹ and a kon of 26400 M⁻¹ s⁻¹.

B8: antibody 452 (antibody, V domains shown)
VH: QVQLVESGGGLVKPGGSLRLSCAASGFTFSDYYLSWIRQAPGKGLEWVSYISSSGSNIYYADSVKGRFTISRDNAKNSLYLQMNSLRADDTAVFYCARAGRYCSGGSCRVEYFQHWGQGTLVTVSS
VL: SYELTQPPSVSVSPGQTARITCSGDALPKQYAYWYQQKPGQAPVLVIYKDNERPSGIPERFSGSSSGTTATLTISGVQAEDEADYYCQSADSSGTVVFGGGTKLTVL
B8 gave a Binding to Wild-Type SARS-CoV-2 (Bead Assay) in assay [2] of 854. For the same molecule, in assay [4], the median fluorescence intensity, fold over isotype control (fold over isotype) stood at 26.8.

B9: anti-SARS-CoV-2 antibody 499 (antibody, V domains shown)
VH: EVQLVESGGGLVKPGGSLRLSCAASGFTFSSYSMNWVRQAPGKGLEWVSSISSSSSYIYYADSVKGRFTISRDNAKNSLYLQMNSLRAEDTAVYYCARAPAGIVVGPDYWGQGTLVTVSS
VL: NFMLTQPHSVSESPGKTVTISCTGSSGSIASNYVQWYQQRPGSAPTTVIFEDNQRPSGVPDRFSGSIDSSSNSASLTISGLKTEDEADYYCQSYHSSNPHVVFGGGTKLTVL
As to B9, the median fluorescence fold over isotype (fold over isotype) in assay [1] is 1120 and 386 and 432.

B10: antibody 315 (antibody, V domains shown)
VH: QVQLVQSGSELKKPGASVKLSCQASGYSFTNHAMNWVRQAPGQGLEWMGWINTNTGNPTYAQGFTGRFVFSLDTSVSTTYLHISSLKAEDTAVYYCARASARPGVATNLDFWGQGTLVVVSS
VL: DIQMTQSPSSLSASVGDRVTITCRASQNIDNYLNWYQQKPGKAPKLLIYAASRLHSGVPSRFSGSGSGTDFTLIISSLQPEDLATYYCQQSYSNPLTFGPGTKVDIR
As for B10, the median fluorescence intensity fold over isotype (fold over isotype control) in assay [7] was found to be 592. The median fluorescence intensity, fold over isotype control (fold over isotype) in [8] stood at 8.85.

B11: antibody 269 (antibody, V domains shown)
VH: QLQLQESGPGLVKPSETLSLTCTVSGGSISSSSYYWGWIRQPPGKGLEWIGNIYYSGSTYYNPSLKSRVTISVDTSKNQFSLKLSSVTAADTAVYYCAGEELDIVATIYSSRYYYYGMDVWGQGTTVTVSS
VL: QSALTQPASVSGSPGQSITISCTGTSSDVGGYNYVSWYQQHPGKAPKLMIYEVSNRPSGVSNRFSGSKSGNTASLTISGLQAEDEADYYCSSYTSTSTLVFGGGTKLTVL
As to B11, the binding signal, bead assay (fold over isotype) in assay [7] is 480 and 191 and 188. The median fluorescence intensity, fold over isotype control (fold over isotype) in assay [8] is 13.3 and 9.09. Further, in assay [9], the Kd amounted to 7.29 nM, the koff was 0.000444 s⁻¹ and the kon worked out at 60900 M⁻¹ s⁻¹.

B12: antibody 390 (antibody, V domains shown)
VH: EVQLVESGGGLIQPGGSLRLSCAASGFTVSSNYMSWVRQAPGKGLEWVSIIYSGGSTYYADSVKGRFTISRDNSKNTLYLQMNSLRAEDSAVYSCATTMVRGLIISYYYGMDVWGQGTTVTVSS
VL: B11 VL with T96S
As to B12, the binding signal, bead assay (fold over isotype) in [3] is 637 and 341 and 318. Moreover, the median fluorescence fold over isotype control (fold over isotype) in assay [6] is 0.73. In assay [5], this molecule yielded a Kd of 0.153 nM, a koff of 1.97e-05 s⁻¹ and a kon of 129000 M⁻¹ s⁻¹.

B13: antibody 413 (antibody, V domains shown)
VH: EVQLVESGGGLIQPGGSLRLSCAASGFTVSGNYMNWVRQAPGKGLEWVSVIYSGGSTYYADSVKGRFTISRANSKNTLYLQMNSLRAEDTAVYYCASTSLVRGLIILYYYGMDVWGQGTTVTVSS
VL: B11 VL with T96S
With B13, the Binding to Wild-Type SARS-CoV-2 (Bead Assay) in assay [2] is 969 and 367 and 416. For the same molecule, the median fluorescence fold over isotype control (fold over isotype) in [6] is 1.11. In addition, in assay [5], the Kd was < 0.0338 nM, the koff was < 1e-05 s⁻¹ and the kon was 296000 M⁻¹ s⁻¹.

B14: antibody 392 (antibody, V domains shown)
VH: QVQLQESGPGLVKPSGTLSLTCAVSGGSISSSNWWSWVRQPPGKGLEWIGEIYHSGSTNYNPSLKSRVTISVDKSKNQFSLKLSSVTAADTAVYYCARGWRATLYGMDVWGQGTTVTVSS
VL: B1 VL with G53V, R54S, Y99W, T103G, V107L
As for B14, the binding signal, bead assay (fold over isotype) in assay [3] is 509.

B15: antibody 279 (antibody, V domains shown)
VH: EVQLLESGGGLVQPGGSLRLSCAASGFTFSSYAMSWVRQAPGKGLEWVSTISGSGGNTYYADSVKGRFTISRDNSKNTLYLQMNSLRAEDTAVYYCAKDLFQGLYYGSGEFDYWGQGTLVTVSS
VL: B11 VL with G31A, E52G, T96S, L99R, G103T, L107V
Regarding B15, the binding signal, bead assay (fold over isotype) in assay [7] was 3.09 and 1.36 and 1.11. The median fluorescence intensity, fold over isotype control (fold over isotype) in assay [8] was 8.59 and 3.84. In assay [9], this molecule gave a Kd of 52.3 nM, a koff of 0.00195 s⁻¹ and a kon of 37300 M⁻¹ s⁻¹.
